The target in assay [1] is T1, monomeric SARS-CoV-2 RBD (wildtype Spike RBD monomer) (SARS-CoV-2, Wuhan strain, UniProt P0DTC2). Put plainly: SPR. For orientation: Surface plasmon resonance follows binding to a sensor surface in real time, without labels.
In assay [2] the target is SARS-CoV-2 RBD sortase A conjugated nanoparticle (24-mer SARS-CoV-2 RBD-ferritin nanoparticle) (SARS-CoV-2, Wuhan strain, UniProt P0DTC2). Put plainly: BLI. For orientation: In BLI a coated tip is dipped into the sample, and binding shifts an interference pattern.
Assay [3] has as its target T1, monomeric SARS-CoV-2 RBD (wildtype …). Put plainly: ELISA. (In general: ELISA stands for enzyme-linked immunosorbent assay.)

B1: DH1047 antigen binding fragment (Fab) (Fab, V domains shown)
VH: QVQLVQSGAEVKKPGASVQVSCQASANTFTNHYIHWVRQAPGQGLEWMGIIYPTGGNTIYAQGFQGRVTMTRDTSLNTIYLELSSLRSEDTAVYYCARDVRVDDSWSGYDLLSGGTYFDYWGQGTLVTVSS
VL: not shown
Usually Kd stands for a measure of binding affinity in units of concentration. In the case of B1, the Kd in assay [1] is less than 0.02 nM.

B2: DH1041, SARS-CoV-2-specific ACE2-binding site-focused RBD neutralizing antibody (antibody, V domains shown)
VH: EVQLVESGGGLVQPGGSLRLSCAASGVTFSSYWMSWVRQAPGKGLEWVANIRQDGSEKYSVDSVKGRFTISRDNAKNSLYLQMNSLRAEDTAVYYCARARRADNSGYYGFHFDCWGQGTLVTVSS
VL: QSVLTQPPSVSGAPGQRVTISCTGSSSNIGAGYDVHWYQQLPGTAPKLLIYGNNNRPSGVPDRFSDSKSGTSASLAITRLQAEDEADYYCQSYDSSLSGWVFGGGTKLTVL
B2: the binding result in assay [2] and in assay [3] was “binds” throughout.

The values are drawn from PMC8528238 (Nature, 2021).
